Experimental data from paper PMC6953907.

Legend:
DDX17 Core WT [1] = biological target: T1, DDX17 Core WT (human, UniProt Q92841-1 32-477); assay: X-ray crystallography
DDX17 Core WT [2] = biological target: T1, DDX17 Core WT; assay: X-ray crystallography; remark: listed apart in the source
DDX17 Core WT [3] = biological target: T1, DDX17 Core WT; assay: EMSA

T1 sequence (Q92841 111-556): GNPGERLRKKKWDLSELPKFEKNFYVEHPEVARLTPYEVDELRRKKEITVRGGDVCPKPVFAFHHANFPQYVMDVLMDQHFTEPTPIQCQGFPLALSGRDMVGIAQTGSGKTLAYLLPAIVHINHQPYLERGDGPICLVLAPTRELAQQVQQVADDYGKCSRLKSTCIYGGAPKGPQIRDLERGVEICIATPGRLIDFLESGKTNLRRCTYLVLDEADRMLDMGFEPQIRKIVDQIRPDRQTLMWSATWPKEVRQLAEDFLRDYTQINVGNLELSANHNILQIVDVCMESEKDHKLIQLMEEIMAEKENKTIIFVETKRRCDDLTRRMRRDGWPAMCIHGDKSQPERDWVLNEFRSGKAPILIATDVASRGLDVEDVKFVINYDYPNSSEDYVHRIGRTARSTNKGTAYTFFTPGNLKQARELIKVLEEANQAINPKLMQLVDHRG

UUUUUUUUUU (ssRNA) [rU10]
binding result (DDX17 Core WT [1]): binds

CACACACCUG (ssRNA) [125a-oligo1]
binding result (DDX17 Core WT [2]): binds

ACACACCUGG (ssRNA) [125a-oligo2]
binding result (DDX17 Core WT [2]): binds

AUUCAUCCAA (ssRNA) [18a-oligo1]
binding result (DDX17 Core WT [2]): binds

AAAAAAAAAA (ssRNA) [rA10]
binding result (DDX17 Core WT [3]): no binding
